Assay results: PMC10694664 (The Journal of Biological Chemistry, 2023)
Where a chain is given by its changes, count along the chain named. Names and notes keep the numbering of the source.

B1: Fis1 N-terminal arm peptide (peptide)
peptide: Ac-MEAVLNEL-NH2
B2: Fis1 (human Fis1 residues 1-125, with the N-terminal arm) (domain or fragment)
chain: MEAVLNELVSVEDLLKFEKKFQSEKAAGSVSKSTQFEYAWCLVRSKYNDDIRKGIVLLEELLPKGSKEEQRDYVFYLAVGNYRLKEYEKALKYVRGLLQTEPQNNQAKELERLIDKAMKKDGLVG
B3: Fis1 E7A (human Fis1 residues 1-125 with E7A) (domain or fragment)
chain: B2 chain with E7A
B4: Cy5-labelled Fis1ΔN (residues 9-125) (domain or fragment)
chain: VSVEDLLKFEKKFQSEKAAGSVSKSTQFEYAWCLVRSKYNDDIRKGIVLLEELLPKGSKEEQRDYVFYLAVGNYRLKEYEKALKYVRGLLQTEPQNNQAKELERLIDKAMKKDGLVG
B5: Fis1ΔN (human Fis1 residues 9-125, lacking the N-terminal arm) (domain or fragment)
chain: B4 chain

Key:
[1] = target: B5; test: NMR titration
[2] = target: Cy5-labelled Drp1 (isoform 1) (human, UniProt O00429 1-736); test: MST
[3] = target: T1, Dynamin-related protein 1 (Drp1) isoform 1, unlabelled (human, UniProt O00429 1-736); test: MST
[4] = target: T1, Dynamin-related protein 1 (Drp1) …; test: NMR titration

Sequence of Cy5-labelled Drp1 (isoform 1) (O00429 whole entry, canonical isoform): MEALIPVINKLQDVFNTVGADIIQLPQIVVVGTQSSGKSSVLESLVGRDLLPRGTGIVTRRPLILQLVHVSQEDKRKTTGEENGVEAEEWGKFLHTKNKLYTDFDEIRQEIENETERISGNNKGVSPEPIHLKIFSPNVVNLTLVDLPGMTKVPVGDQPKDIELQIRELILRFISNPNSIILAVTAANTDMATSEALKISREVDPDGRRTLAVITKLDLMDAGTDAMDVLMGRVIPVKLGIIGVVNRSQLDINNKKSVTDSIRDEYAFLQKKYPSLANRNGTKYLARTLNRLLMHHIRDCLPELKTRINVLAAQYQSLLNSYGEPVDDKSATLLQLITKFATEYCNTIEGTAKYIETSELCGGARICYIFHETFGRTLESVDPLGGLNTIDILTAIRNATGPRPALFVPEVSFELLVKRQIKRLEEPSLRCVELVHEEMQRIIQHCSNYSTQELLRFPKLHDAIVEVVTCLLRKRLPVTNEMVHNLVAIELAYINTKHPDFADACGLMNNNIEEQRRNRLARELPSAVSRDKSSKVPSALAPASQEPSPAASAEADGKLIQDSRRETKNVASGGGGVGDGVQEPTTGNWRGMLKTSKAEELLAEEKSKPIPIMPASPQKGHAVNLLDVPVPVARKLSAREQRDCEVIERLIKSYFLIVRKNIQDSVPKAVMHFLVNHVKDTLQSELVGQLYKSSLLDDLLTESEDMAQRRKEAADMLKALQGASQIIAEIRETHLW
T1 sequence (O00429 whole entry, canonical isoform): as above

Question: For B1, which Kd [1] is on record?
Answer: Its Kd is ≥ 5000 µM.

Question: How did the Kd [2] turn out when B2 was run?
Answer: Its Kd is 13 ± 3 µM.

Question: B3 was tested. Which Kd [2] did it give?
Answer: The Kd was 7 ± 1 µM.

Question: B4 was tested. Which Kd [3] did it give?
Answer: The Kd was 15 µM.

Question: B5 was tested. Which Kd [4] did it give?
Answer: Its Kd is 26 to 68 µM.
